One assay concerns the target Hepatitis A virus (HAV). Description: cell-based or functional assay.
The target in the next assay is Rotavirus. Description: cell-based or functional assay.
Assay [1] deals with Human infectious Norovirus (genotype GII-4). Description: Norovirus captured on Con A-bound sepharose 4B resin, Ct values by RT-PCR.
Assay [2] has the same target. Description: BLI, antibody and Con A each immobilized on ARG2 chips, same concentration of Norovirus. (Biolayer interferometry detects binding as a change in optical thickness at a sensor tip.)

Take “concanavalin A (Con A, sigma) (from UniProt P02866 30-281)”: the concentration of HAV (copy number by RT-PCR) in FRhk-4 cells, Con A plus HAV group in the assay with Hepatitis A virus (HAV) amounted to 27000 unit. Further, in the assay with Rotavirus, the concentration of Rotavirus (copy number by RT-PCR) in MA-104 cells, Con A plus Rotavirus group was found to be 64000 unit. Besides, the collection rate in assay [1] amounted to 94.1%. The substance further gave a fold stronger binding than the antibody in assay [2] of 3 fold.

These data come from patent US20170285011A1.
